Data reported in a protein production outcome set (Wang et al. 2014).

Assay: label from the status in PepcDB records

Row | Sequence | protein production
1 | AWMHGHRFYVDERVIVPRSFIGELLDDGLQPYVEDPELVGSVLELCTGSGCLAILAALAFPNASVDAVDLSADALAVAKINRDDYGLDERIALHHGDLYAPLPQFKWIDSAQRYDVIITNPPYVNAESMAELPAEYRHEPEMALAGGADGMDIVRRIIGEARRWLKDDGVLVVEIGNERANVEAAFGGLELVWLPTSAGDDSVFLIHASD | failed
2 | MERNVTLDFVRGVAILGILLLNISAFGLPKAAYLNPAWYDAITPQDAWTWAFLDLIGQVKFLTLFALLFGAGLQMLLPRGRRWIQSRLTLLVLLGFIHGLLFWDGDILLAYGLVGLGVLLLLGLISDSQTSRAWTPDASAILYEKYWKLHGGVEAISNRADGVGNSLLALGAQYGWQLAGMMLIGAALMRSGWLKGQFSLRHYRRTGFVLVAIGVTINLPAIALQWQLDWAYRWCAFLLQMPRELSAPFQAIGYASLFYGFWPQLSRFKLVLAIACVGRMALTNYLLQTLICTTLFYHLGLFMHFDRLELLAFVIPVWLANILFSVIWLRYFRQGPVEWLWRQLTLRAAGPAISKTSR | failed
3 | MSNTYLASMALMGALVVAVVTWMVRGRGWYHYSPGSSTSGRSPTSDRESRFETYADQPMVWVGAFAVLVVGLLVGVVASISGPVETQSIAGLAVAVVGGAGLCGYLLFGVYLSATRRGHPRSLAVAESATVAGVLFLIAVGFQLVGA | failed
4 | SEYKFAKFAATYFQGTTTHSYTRRPLKQPLLYHDDEGDQLAALAVWITILRFMGDLPEPKYHTAMSDGSEKIPVMTKIYETLGKKTYKRELQALQGEGEAQLPEGQKKSSVR | failed
5 | MNNKIYFTPGPSELYPTVRQHMITALDEKIGVISHRSKKFEEVYKTASDNLKTLLELPSNYEVLFLASATEIWERIIQNCVEKKSFHCVNGSFSKRFYEFAGELGREAYKEEAAFGKGFYPADITVPADAEIICLTHNETSSGVSMPVEDINTFRDKNKDALIFVDAVSSLPYPKFDWTKIDSVFFSVQKCFGLPAGLGVWILNDRVIEKSKALLAKRKSIGTYHTIPSMLEKARVNQTPETPNAMNIFLLGKVTGDMLQISADGIRKQTEEKAALINTYIESSKVFSFGVEDAKLRSMTTIVANTTMLPGEINKILEPFDMAVGAGYGSKKETQIRIANFPAHSLEQVHKLVQTLKEKIG | not failed
6 | MNAVGLVAFATVGSLKAIDADFDVLGVAVLGVLTALGGGATRDVLVGSVPAMLQSTTDVGFALAGVVVAVVVARRVGTEVLAHPVVDVPDAVGLAAFAASGALVGVGADVSPFGVVVLGTTTGVGGGLVSDVLLQRVPFVLTEDLYATCAIAGSTVLWVATASGLGATIAAAAGAGVTLAVRLLAIRFEWALPTVRLNAPA | failed
7 | EGALPKASEATVCANNSKVSSPGEKVVLWTREADRVILTMCQEQGAQPHTFSVISQQLGNKTPVEVSHRFRELMQLFHTACE | not failed
8 | GYTPQQLDSMVRKQDWMFLLSDRVKRSAMSLNEREKSEKYVFSFPFTKSPKDAVSGGIIKGQNLANLFTELTVGYHDSVDFNKLPIPFACVSQNIVNGEQIVFHNGILATAMRASMAIPGVFTPVRKDSMILIDGGMINNYPVDVARSMGADIIIGVDVQNNLKGID | failed
9 | MSQTTTYAGSAGTAKTEIETSTIRAISWRLIPFLVLAYFFSYLDRVNLGFAALTMNAELKFTPLIFSWGAGIFFIGYFIFEVPSNLALEKFGASRWIARIMVTWGIISALMAMVSGVTSFYVLRFLLGVAEAGFFPGIILYLTYWYPAEYRARFLAAFAIAVPVSTVIGAPVSGLLLGLDGVMGLKGWQWLFIIEGIPSVLLGIVTWFYLTDRPEKADWLSAEQKAWLKAKLDSEIAAKQAVKHLSLGEALSSPKVIALSLIYFGFVGALYGMQFWLPQIVKAFGLTNAQTGFVTAIPYLFGTVAMILWARHSDATRERVMHVGAPLLLTAVALGVSSYLTDPTLTMVVLTVAAIGVFCCFGVFWTLPTAWLSGTAAAGGIALINSIGNLAGFGGPYLIGWVKEATGQTSTGLLVLAVLPLLAGILVFVGGHDSKHEFAGQGR | failed
10 | MKSLTPHLLLCSFFTSIAPALGEGFRNKRVAFIPTAAAHEEYTAYVDSARSSWKELGSNITDVDIARMPLRTATEALEQAEIIYLSGGNSFYLLDCLRSTEIDQIIRGRLAEGAILVGESAGAIVCSPNIAYIQPMDRVPDNYSQADYTGLNLVDFFPVPHYLAPPFVKSSKEVVAQHASLPLELMNNAEAVIVEGPQRTKISSEHQ | failed
11 | QTASGASYVLREIGADDTATAFAALSVLRSSLTDIGRFTEQINKIQRPQGYRLLGIFEECKHNAVAVCGFREACTLAGGRHIHIDDIVTLPQSRRKGYASRLLEEVRKIGAETGVTKIHLNVHVNHDRTDAHRLYFKNGFEICAYHFRCDPK | failed
12 | MIPFKDITLADRDTITAFTMKSDRRNCDLSFSNLCSWRFLYDTQFAVIDDFLVFKFWAGEQLAYMMPVGNGDLKAVLRKLIEDADKEKHNFCMLGVCSNMRADLEAILPERFIFTEDRAYADYIYLRSDLATLKGKKFQAKRNHINRFRNTYPDYEYTPITPDRIQECLDLEAEWCKVNNCDQQEGTGNERRALIYALHNFEALGLTGGILHVNGKIVAFTFGMPINHETFGVHVEKADTSIDGAYAMINYEFANRIPEQYIYINREEDLGIEGLRKAKLSYQPVTILEKYMACLKDHPMDMVRW | not failed
13 | QKVPLPSLSPTMQAGTIARWEKKEGDKINEGDLIAEVETDKATVGFESLEECYMAKILVAEGTRDVPIGAIICITVGKPEDIEAFKNYTLDSSAA | not failed
14 | LEVLVKTLDSQTRTFIVGAQMNVKEFKEHIAASVSIPSEKQRLIYQGRVLQDDKKLQEYNVGGKVIHLVERAP | not failed
15 | MERAFMLNGLLVNLVSGLIVMFISAILYYRKPERKWLLIIIVIGMMSVVTAGIRMLVA | failed
16 | MTPGSNIPLSAARVTVDVAAPVRLDVSGLLLTADGKVRSDDDFIFYNQPTGQGVTYRSGGGSAPDAIVVDTSAVPPGIEKIVVTASPDAAGQTFQGIEPTATIRNADDNAVLATFTPPQLGTETALVIVEVYLRNGAWKARAVGQGYSNGLAGIATDFGVTVEEPAAPATPPQPQAVTPPPPPAAAPTMPAAPPAPPAAPPAPAPGTGKINLDKGRVSLQKNQTVSLVKGGRPVLSQVKMGLGWEPAYRGKDIDLDASVIAYGPQRNHIDSCYFGKLSIVNGAIKHSGDNLTGEGGGDDEVIVVDLGRLPQEVSGLVFTVNSFSGQKFTEVAKAYCRLIDAASGEELVRFDLTSAEPQTGVMMAKLIRQYSGEWEMTAIGDFVKSRTVRGMVKPAAQAL | failed
17 | MKLTHSFIKQQARLGLNFFRYLLARMNHDRVNVNAGYLAYITLLSMVPMLTVLLSILSSFALFANAGEVIQDFVITHFVPAAGEVVKTALIEFVANTGKMTAVGGAFLFVAAIMLISNIDKNLNYIWRVQQKRRAVFSFSMYWMILTLGPILVGASIAATSYITSLKILDNEALSGVYNLFLRWLPFVLSYCAFVGLYLLVPNKKVHWQHAMLGALIAAILFELSKKGFAAYITQFPSYQLIYGALAAIPILFVWVYLCWLIVLVGAEVTAALGEREHWSDSQDMLHFAPLPKNEKE | not failed
18 | MTNVGRPIETHAITVGQGSDARSIAALVRAPAQDERPTCIWLGGYRSDMTGTKALEMDDLAASLGVGAIRFDYSGHGASGGAFRDGTISRWLEEALAVLDHFKPEKAILVGSSMGGWIALRLIQELKARHDNPTQVSGMVLIAPAPDFTSDLIEPLLGDRERAELAENGYFEEVSEYSPEPNIFTRALMEDGRANRVMAGMIDTGCPVHILQGMADPDVPYQHALKLVEHLPADDVVLTLVRDGDHRLSRPQDIDRMRNAIRAMIEPRP | not failed
19 | MRLYVMLLSLSLIWGFSFVFIEHLLGIVGVWGTVVVRCFAGAIILLPILLMRRKLFYRPAPWKALMIVGIFNAGLPWGLIALSQTEIYSSTAAVLNALTPLFTGLIGFLLYSNALSRQQWGGIVLGFSGVVVLTGFQLQLLAPEHFVGVGTMILATICYGFASQYVKRHLHDTDVVLITTFSLLFGGLVGLIGMWITDSLHVVRVPLTIDWLSLISIIGLGCLGSGMAHLLYYDLMKKGGPEFATTVTYLIPMTAIIWGKLFLDELITKNIVIGMLMILMGVYFTSRKRNVCSKANEDSNKGELA | failed
20 | MAGAAHRLMEARMRRYDNKFARISDIDINQPESWRGRIFLTFDIDWAADFVLQDTIDLIEGAGVCATWFATHSTPLLENIRRNPLFELGVHPNFNPLLAGAHAEGVQEILDRTLELAPGCVSVRSHSLVQATSILNMFGERRLRYDCNILVPWDAGIVLQPWRHWTGDMVRVPYLWEDDVACLYDWEFDSTFDYWYQPDGINVLDFHPIHVYMNTESLRRYEDSREVHRNPVDLIRWRNTSAGSRTFLQSLLARNI | not failed
21 | MKYLLLPVVVLLAGCQSLSQSDGNAITDNSDSQVETAHPVEINQALLADESIDVIHPVADVDFSLNNTLKDQKAIDENNIWPRIRSQLTFDIPNQKRLVSQRNWYVKHPSYLKRVAKRAEPFLYYIVQELEKNDMPIELAFLPIVESAFDPFAYSHGRASGMWQFVPGTGERFGMKQNWWYDGRRDVVASTEGAIKYLKYLHKFFDGDWMLALAAYNSGEGRVRNAVRKNKRLGKPTDFWSLDLPKETRAYVPKLLALADIVKRPEDFNLSLYSIDNKSVLSQVDIKSQLDLAKAATLAGLSLAELQRLNPGFNRWATDPDGPHRLLLPSHTVEKFELGLSKLSKKDRLAWQRYKIKSGDNLGLIANKFNTRVDLIQQVNNIKGNQIRAGKHLLIPVAAKSLDSYVFSQEQRIAKKQNRPQKGRKLVHTVKSGDNLWDIGRKYKVNSKSIAKWNGFAPRDTLKLGQKLVIWQKSDTKSNKSNFANSKTGNNVENAIMRNITYKVRRGDSFARIADKFNVRISDIERWNNLDRKKYLQPGQRLKLSVDVTNNI | failed
22 | MKKVLALVAFVVLFSFSFLSAGVTAQAALKDGTYSVDYTVLQGDSDSVSMANDYFDKPATVTVNGGKSTVSLQVNHSKWITGLWVEGNAVSVTSKNTASDTRKVSFPVSTLSSPVNAKIKVDIDDDGLNYHHEYQIQLRFDEGAVKSSGAAV | failed
23 | MDSQSENGSGAGNRTSIERRGDRELVVTRTFDAPRAMVYRAWSEPELFRRWWMPKSATGVTLVSCDMDVRTGGKYRLEFSTGGPQTMAFYGKYLDVVPNERIVWTNDEGEADAGEKGAITTVTFEDHGSQTLLRFHEVYPTAEALEEALQGSAAALPEQFDQLGEVLSGSGGKQ | failed
24 | MKKGFSALVEHNGYRVLVDTGTDGKILLNNMEGLGIDPNSIDALFLTHGHYDHTGGIAELLKARKDTLDVYAHPRIFEKRIALKPKRRDIGIPFSQEELESLGAIFHLNDKALEFLPGLISSGEIKRETWDRAVGYLLNNEKDPVRDDMALLIDLGDKIAVITGCGHSGILNIAKHAVEISKKPIRALIGGFHLRGASITILEDAVRGLKELNVEMLYPGHCTGIDEYAYLRMKLKAEHLNVGKEIVIK | failed
25 | LDALRRYHRQTLQELPMGVCSLAKDQEILMWNKAMEELTGIPAQHVVGSRLSTITNPWKDLLQGFINLPDEHLHKQHLALDGQTRWLNLHKAAIDEPLAPGNSGLVLLVEDLTETQTLEDKLVHSERLASIGRLAAGVAHEIGNPITGI | failed
26 | MAKIFVVGGSGRVASELIKNLINDGNQVFASSRHPEKIIKLDNVVPVKLDLHSDVSAWSEVFKGMDVIYFVAGSRGKDLLQTDAMGAVKTMQAAENVGVKRYIMLSSLYALQPEKWSQYESLAALTDYNIAKFFADNYLVNDTKLDYTVVQPASLTEETGTGRVSFNEIISNTNPIPDVAKVLAEVIKHNNTIGKVIMMCSGDNPIETALKDI | failed
27 | MRVIVAYDGSPGADKAVGFALGLKDSIDKYFILYVSRDITDLSGQLVYISDETVEQQERLADEIVNKAKSLMTRSGVDYEVMKVDSNGEDISKVIVKIAQEKGIDVIFTGTRKLRGLDKFFLGSISSGILALSSCPVIVVP | not failed
